Assay in all cases: ITC
Details in all cases: ITC: 10 mM HEPES, 150 mM NaCl, pH 7.5, 25 C, 100 uM DNA into 10 uM CsoR tetramer; EMSA: same buffer, room temperature, 30 min, 6% PAGE in TBE; SEC: same buffer
(In EMSA bound probe runs differently from free probe, usually more slowly.)

The target in series [1] is CsoRSl R132A (Streptomyces lividans 1326) (UniProt D6EK73).
Series [2] addresses CsoRSl R54A (Streptomyces lividans 1326) (UniProt D6EK73).
In series [3] the target is CsoRSl R129A (Streptomyces lividans 1326) (UniProt D6EK73).

In general, Kd refers to the free concentration of one partner at which half of the binding sites on the other are occupied at equilibrium, for simple one-to-one binding. A high value points to lower affinity.

On to “CGGACAAATACCCCTGGTGGGTATATATGG (double strand) [csoR-EXT]”, for which the dissociation constant Kd in series [1] was 309 nM; in series [2], 2060 nM; in series [3], 134 nM.

For the origin of these results see PMC3902906.
